US20120028912A1 (NEW YORK UNIVERSITY AND THE RESEARCH FOUNDATION OF THE …, published 2012)
Numbering of substitutions follows the chain as printed. Names may count otherwise.

Assays:
[1] = target: T1, N-terminal biotinylated and lysine-acetylated Tat peptide (Tat AcK50) (HIV-1); assay: pull-down with the biotinylated Tat-K50ac peptide on streptavidin agarose, anti-GST Western blot
T1 construct: also called biotinylated and wild type Tat peptide; Tat peptide containing AcK50

[2] = target: T2, Tat AcK50 peptide SYGR-AcK-KRRQRC (SEQ ID NO:50) (HIV-1); assay: NMR 2D 1H-15N HSQC
T2 construct: Synthetic peptide

[3] = target: T1, N-terminal biotinylated and …; assay: pull-down with the N-terminal biotinylated, lysine-acetylated Tat peptide on streptavidin agarose, anti-GST western blot
[4] = target: p300/CBP-associated factor (P/CAF), HA-tagged (human, UniProt Q92831 1-832); assay: co-immunoprecipitation from cells with anti-FLAG (FLAG-Tat), western blot with anti-HA (HA-P/CAF)

B1: TIF16 (624-812) (other)
chain: SATICRVCQKPGDLVMCNQCEFCFHLDCHLPALQDVPGEEWSCSLCHVLPDLKEEDGSLSLDGADSTGVVAKLSPANQRKCERVLLALFCHEPCRPLHQLATDSTFSLDQPGGTLDLTLIRARLQEKLSPPYSSPQEFAQDVGRMFKQFNKLTEDKADVQSIIGLQRFFETRMNEAFGDTKFSAVLVEP
notes: also called GST-fusion TIF1b bromodomain-containing construct, residues 624-812 (lane 6); the sheet prints 'TIF16'; not shown: GST tag and linker of the pGEX4T-3 vector
B1: no binding [1].

B2: bromodomain of P/CAF (residues 719-832 of SEQ ID NO:2) (other)
chain: SKEPRDPDQLYSTLKSILQQVKSHQSAWPFMEPVKRTEAPGYYEVIRFPMDLKTMSERLKNRYYVSKKLFMADLQRVFTNCKEYNAAESEYYKCANILEKFFFSKIKEAGLIDK
notes: also called P/CAF bromodomain; PCAF bromodomain
For B2, the Kd [2] was about 20 µM.

B3: CBP (1082-1317) (other)
chain: KKIFKPEELRQALMPTLEALYRQDPESLPFRQPVDPQLLGIPDYFDIVKNPMDLSTIKRKLDTGQYQEPWQYVDDVWLMFNNAWLYNRKTSRVYKFCSKLAEVFEQEIDPVMQSLGYCCGRKYEFSPQTLCCYGKQLCTIPRDAAYYSYQNRYHFCEKCFTEIQGENVTLGDDPSQPQTTISKDQFEKKKNDTLDPEPFVDCKECGRKMHQICVLHYDIIWPSGFVCDNCLKKTGR
notes: also called GST-fusion CBP bromodomain-containing construct, residues 1082-1317 (lane 4); not shown: GST tag and linker of the pGEX4T-3 vector
B3: no binding [1].

B4: GST-fusion bromodomain from TIF1 (other)
chain: KLSPANQRKCERVLLALFCHEPCRPLHQLATDSTFSLDQPGGTLDLTLIRARLQEKLSPPYSSPQEFAQDVGRMFKQFNKLTEDKADVQSIIGLQRFFETRMNEAFGDTKFSAVLVEP
notes: domain: bromodomain; also called bromodomain of TIF1; TIF1b
B4: no binding [3].

B5: TIF16 (702-812) (other)
chain: RKCERVLLALFCHEPCRPLHQLATDSTFSLDQPGGTLDLTLIRARLQEKLSPPYSSPQEFAQDVGRMFKQFNKLTEDKADVQSIIGLQRFFETRMNEAFGDTKFSAVLVEP
notes: also called GST-fusion TIF1b bromodomain construct, residues 702-812 (lane 5); not shown: GST tag and linker of the pGEX4T-3 vector
B5: no binding [1].

B6: HIV-1 Tat protein, wild type (other)
chain: MEPVDPRLEPWKHPGSQPKTASNNCYCKRCCLHCQVCFTKKGLGISYGRKKRRQRRRAPQDSKTHQVSLSKQPASQPRGDPTGPKESKKKVERETETDPED
notes: also called Tat-KK; wild type Tat
B6: binds [4].

B7: HIV-1 Tat double mutant K50R/K51R (other)
chain: B6 chain with K50R, K51R
notes: also called Tat-RR; Tat K50R/K51R mutant protein
B7: no binding [4].
